From patent publication US20120108797A1 (AstraZeneca / MedImmune, published 2012)

Columns and labels:
[1] = biological target: T1, human urokinase-type plasminogen activator receptor (uPAR), cell-bound (human, UniProt Q03405 23-305); assay: FACS, B300.19/hu-uPAR cells
T1 construct: whole, on cells; Full length cDNA expressed on B300.19 and L929 transfectants; endogenous on U937 (and PC-3 used as positive control cells); also called hu-uPAR

[2] = biological target: T2, cynomolgus monkey uPAR, cell-bound (cynomolgus monkey, UniProt Q9GK78 23-305); assay: FACS on 293T cells expressing cynomolgus uPAR, GeoMean of the peak shift
T2 construct: whole, on cells; also called cyno-uPAR; uPAR on CHOK1 or 293T transfectants
T2 sequence (Q9GK78 23-305): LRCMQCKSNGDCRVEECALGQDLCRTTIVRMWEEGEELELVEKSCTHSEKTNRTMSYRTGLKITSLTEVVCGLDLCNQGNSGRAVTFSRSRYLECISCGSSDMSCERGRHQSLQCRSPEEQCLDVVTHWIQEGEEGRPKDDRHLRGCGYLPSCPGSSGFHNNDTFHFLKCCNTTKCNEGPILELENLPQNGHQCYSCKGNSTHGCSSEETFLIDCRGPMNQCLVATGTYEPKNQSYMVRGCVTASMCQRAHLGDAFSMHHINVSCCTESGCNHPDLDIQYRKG

T1 sequence (Q03405 23-305): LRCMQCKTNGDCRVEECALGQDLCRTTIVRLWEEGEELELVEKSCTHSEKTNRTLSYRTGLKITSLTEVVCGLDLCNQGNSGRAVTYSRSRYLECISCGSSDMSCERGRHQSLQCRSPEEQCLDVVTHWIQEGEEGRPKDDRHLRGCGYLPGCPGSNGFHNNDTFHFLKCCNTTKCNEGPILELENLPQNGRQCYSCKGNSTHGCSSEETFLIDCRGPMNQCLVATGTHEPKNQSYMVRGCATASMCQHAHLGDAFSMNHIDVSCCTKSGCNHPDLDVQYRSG

B1: 4.13.2 (antibody, V domains shown)
VH: EVQLLESGGGLVQPGGSLRLSCAASGFTFSSYAMSWVRQAPGKGLEWVLGISGSGGSTYYADSVKGRFTISRDNSKNTLYLQMNSLRAEDTAVYYCAKDGYGDYVGWYFDLWGRGTLVTVSS
VL: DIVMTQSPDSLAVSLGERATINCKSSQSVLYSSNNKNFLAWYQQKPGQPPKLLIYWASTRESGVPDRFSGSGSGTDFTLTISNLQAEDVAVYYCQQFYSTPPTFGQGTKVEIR
notes: Variable domains only; gamma 4 by chain name, kappa; also called 4.13.1; 4.13.1g4
With B1 the “gCy5 Geo Mean Pos Cells” value [1] was 282.

B2: 3.8.3 (antibody, V domains shown)
VH: EVQLVESGGGLVQPGGSLRLSCAASGFTFSSYWMSWVRQAPGKGLEWVANIKQHGSEKYYVDSVKGRFTISRDNAKNSLYLQMNSLRAEDTAVYYCAREEAYYYDNSGYYWYFDLWARGTLVTVSS
VL: DIQMTQSPSSVSASIGDRVTITCRASQGISSWLAWYQQKPGKTPKLLIYAASSLQSGVPSRFSGSGSGTDFTLTISSLQPEDFATYYCQQADSFPWTFGQGTKVEIK
notes: Variable domains only; gamma 2 by chain name, kappa; also called 3.8.3g2; 3.8.3k
B2: binds [2].
